Data as given in article PMC3752466 (Nature communications, 2013).
Where “and” joins values, the source holds several entries; their conditions need not be identical. Equal values may be shown once.

Target: T1, BoNT/B-HC (binding domain of botulinum neurotoxin type B, residues 857-1291) (UniProt P10844 857-1291)
T1 sequence: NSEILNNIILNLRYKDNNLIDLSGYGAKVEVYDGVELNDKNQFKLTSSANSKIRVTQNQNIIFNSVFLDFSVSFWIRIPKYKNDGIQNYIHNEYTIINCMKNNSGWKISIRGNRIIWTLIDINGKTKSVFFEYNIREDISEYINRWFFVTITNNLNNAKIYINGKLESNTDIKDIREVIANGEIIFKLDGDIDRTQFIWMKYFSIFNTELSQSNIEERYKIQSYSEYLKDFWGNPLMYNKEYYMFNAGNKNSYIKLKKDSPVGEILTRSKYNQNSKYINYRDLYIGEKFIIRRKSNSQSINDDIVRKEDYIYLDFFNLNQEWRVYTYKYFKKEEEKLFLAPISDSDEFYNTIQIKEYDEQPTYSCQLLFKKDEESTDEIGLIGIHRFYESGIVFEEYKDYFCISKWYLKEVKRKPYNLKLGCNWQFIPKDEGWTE
Assay: ITC

Q: With GESQEDMFAKLKDKFFNEINK [rat Syt-II peptide (residue 40-60)] as the binder, how does the Kd read?
A: Its Kd is 140 nM and 180 nM.
